In US20230203142A1, “TREATMENT OF METABOLIC DISORDERS THROUGH THE TARGETING OF A NOVEL CIRCULATING HORMONE COMPLEX” (The President and Fellows of Harvard College, priority 2020, published 2023):

Assays:
[1] = biological target: FABP4 (Homo sapiens, UniProt P15090); assay: Antibody binding affinity for FABP4; conditions: compared to traditional therapeutic antibodies
[2] = system: non-diabetic NOD mice; assay: Immune phenotyping (FACS) of tissues of treated NOD mice; format: in vivo, mouse; conditions: mean
Procedure: To perform immune phenotyping, mice were euthanized with CO2 and cardiac perfusion performed with 40 ml of sterile PBS. Whole pancreas, pancreatic lymph nodes (PLN), inguinal lymph nodes (ILN), and spleen were harvested, diced into 1 mm pieces, placed in digestion buffer (RPMI 1640, lmg/ml Collagenase Type IV, 10 U/ml DNAsel, and 1% BSA), and incubated at 37° C. for 20 min shaking at 250 rpm. Pancreas samples were filtered through a 40 μm nylon strainer into a fresh 50 ml tube, and fresh media added up to 40 ml (RPMI 1640, 1% FBS, 1% Sodium Pyruvate, 1.56 ul β-mercaptoethanol). Tubes were then centrifuged at 1500 rpm for 10 min, supernatant removed, and cells resuspended in 2 ml fresh media. Resuspended cells were passed through a 40 μm nylon filter into a 15 ml round-bottomed polystyrene tube. For PLN, ILN, and spleen, digestion samples were filtered through a 40 μm nylon strainer into a 15 ml round bottom polystyrene tube, and lml of media was added. Spleen samples had supernatant removed, and lml ACK lysis buffer (Thermo Scientific A1049201) added for 2 min at room temperature. Samples were then centrifuged at 1500 rpm for 5 min, and resuspended in 1 ml media. All samples were centrifuged at 1500 rpm for 5 min, supernatant removed, and cells resuspended in FACS buffer (5% BSA in cold PBS; 0.5 ml for PLN and ILN, lml for pancreas and spleen). Staining and FACS analysis were performed as previously described (Engin et al., 2013).

[3] = system: primary human islets; assay: Glucose-stimulated insulin secretion (GSIS), human islets; format: cell-based
Procedure: Primary islet isolation from mice was performed as previously described (Batchuluun et al., 2018; Prentice et al., 2014) and GSIS was assessed following acute treatment with NDPK-ADK in the presence or absence of FABP4. Insulin secretion assays were performed as previously described (Prentice et al., 2014). For primary islets, 20 islets were hand-picked into 1.5 ml tubes, washed twice with Krebs Ringer Buffer (KRB) without glucose, and pre-incubated in 500 μl low glucose (LG; 2.8 mM) KRB for 1 hour at 37° C. KRB was then removed and 250 μl of fresh LG KRB added. Islets were incubated for 20 minutes at 37° C. Supernatant was collected and 250 μl high glucose (HG; 16.7 mM) KRB added. Islets were incubated for 20 minutes at 37° C. In conditions where KCl was used, HG KRB was collected, and 250 μl KC1 (16.7 mM glucose, 30 mM KCl) KRB added. Islets were incubated for 20 minutes at 37° C., and supernatant collected. Following the stimulation protocol, cells were lysed in 100 μl acid ethanol (70% ethanol, 1% HCl in water) and stored at 4° C. overnight. Samples were evaporated using a SpeedVac until dried, and resuspended in 60 μl ultrapure water. DNA was quantified by Nanodrop (ThermoFisher, USA). Insulin from supernatant was quantified using insulin HTRF (Insulin Ultrasensitive Assay kit 62IN2PEH; Cisbio, USA). […]

[4] = system: INS1 cells; assay: ER stress and cell death markers (Western blot, QPCR); format: cell-based, rat; conditions: combined stimulation with complex and ER stress-inducer Tg
Excerpt: The purinergic P2Y receptors activate two downstream signaling pathways; phospholipase C (PLC), which promotes the generation of IP3, as well as inhibition of cAMP generation through the activation of G proteins (Sabala et al., 2001; Seo et al., 2016). These pathways directly influence calcium flux, which regulates both insulin secretion and survival. To elucidate how the NDPK-ADK/FABP4 complex influences beta cell function to promote diabetes, the intracellular effects mediated by this complex were examined using western blotting and quantitative PCR. Western blotting and quantitative PCR (QPCR) were performed as previously described (Prentice et al., 2018). […] Protein content was evaluated by BCA (Invitrogen, USA). […]
ER calcium homeostasis is essential for a variety of processes and reduced ER calcium can induce ER stress through the accumulation or inappropriate secretion of misprocessed or misfolded proteins (Engin et al., 2014; Engin et al., 2013). […] Cells were treated for 2 hours with increasing doses of Thapsigargin or 18 hours with increasing doses of cytokines (1=TNFα (Peprotech #315-05-20 ug) […], IFNγ (Peprotech #315-01A-20 ug) 100 ng/ml, IL-1β (R&D Systems #401-ML-005) 5 ng/ml), washed with PBS, and cleaved caspase 3/7 activity was determined using the Promega Caspase-Glo 3/7 Assay System, according to manufacturer's instructions.

FABP4, sequence (P15090 whole entry): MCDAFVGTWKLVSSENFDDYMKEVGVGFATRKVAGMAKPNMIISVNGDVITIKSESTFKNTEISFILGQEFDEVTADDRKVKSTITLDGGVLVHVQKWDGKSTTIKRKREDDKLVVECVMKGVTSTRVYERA

- binding affinity for recombinant FABP4 [1]: relatively weak binding affinity
B1: a-Ab: monoclonal antibody previously reported as CA33; heavy chain SEQ ID NO 446, light chain SEQ ID NO 447; binds FABP4 and NDPK (antibody, listed as Homo sapiens)
heavy: QSVEESGGRLVTPGTPLTLTCTVSGFSLSTYYMSWVRQAPGKGLEWIGIIYPSGSTYCASWAKGRFTISKASTTVDLKITSPTTEDTATYFCARPDNDGTSGYLSGFGLWGQGLVTVSSAKTTPPSVYPLAPGSAAQTNSMVTLGCLVKGYFPEPVTVTWNSGSLSSGVHTFPAVLQSDLYTLSSSVTVPSSTWPSETVTCNVAHPASSTKVDKKIVPRDC
light: DVVMTQTPASVSEPVGGTVTIKCGASEDISRYLVWYQQKPGQPPKRLIYKASTLASGVPSRFKGSGSGTDFTLTISDLECDDAATYYCQCTYGTYAGSFFYSFGGGTEVVVERTDAAPTVSIFPPSSEQLTSGGASVVCFLNNFYPKDINVKWKIDGSERQNGVLNSWTDQDSKDCTYSMSSTLTLTKDEYERHNSYTCEATHKTSTSPIVKSFNRNEC
- ILN Cytotoxic T-Cells ([2]; inguinal lymph nodes): 21.4%
- Spleen Cytotoxic T-Cells [2]: 11.5%
- PLN Cytotoxic T-Cells ([2]; pancreatic lymph nodes): 15.7%
- GSIS in response to the NDPK-ADK/FABP4 complex [3]: rescued
- ER stress markers Chop and Bip (Grp78) [4]: rescued
